Experimental data published in the supplement of paper PMC9112550, “Optimization of the antimicrobial peptide Bac7 by deep mutational scanning” (BMC Biology, 2022).

Test system: Escherichia coli TOP10
Assay: shrunken log2 fold change of peptide-encoding DNA abundance (4.5 h post-induction vs induction); higher = less antimicrobial activity (less host growth inhibition)
Conditions: time post-induction: 4.5 h; library: site-saturation at positions 5, 18, 19, 20
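Note: peptides expressed intracellularly from a pBAD plasmid library in pooled LB shake-flask culture, induced with 0.3% L-arabinose, DNA abundance read by NGS, three biological replicates, DESeq2 with apeglm shrinkage.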

RRIRRRPPRLPRPRPRPWRSPRP
shrunken log2 fold change: 0.181

RRIRRRPPRLPRPRPRPWSKPRP
shrunken log2 fold change: -0.225

RRIRRRPPRLPRPRPRPWSLPRP
shrunken log2 fold change: 0.016

RRIRRRPPRLPRPRPRPWVPPRP
shrunken log2 fold change: -0.0825

RRIRRRPPRLPRPRPRPWWMPRP
shrunken log2 fold change: 0.386

RRIRRRPPRLPRPRPRPWWSPRP
shrunken log2 fold change: 0.105

RRIRRRPPRLPRPRPRPYALPRP
shrunken log2 fold change: -0.5

RRIRRRPPRLPRPRPRPYDCPRP
shrunken log2 fold change: -0.113

RRIRRRPPRLPRPRPRPYDIPRP
shrunken log2 fold change: -0.249

RRIRRRPPRLPRPRPRPYDKPRP
shrunken log2 fold change: -0.213

RRIRRRPPRLPRPRPRPYEFPRP
shrunken log2 fold change: -0.187

RRIRRRPPRLPRPRPRPYFWPRP
shrunken log2 fold change: 0.0638

RRIRRRPPRLPRPRPRPYGCPRP
shrunken log2 fold change: -0.00402

RRIRRRPPRLPRPRPRPYGHPRP
shrunken log2 fold change: -0.198

RRIRRRPPRLPRPRPRPYHHPRP
shrunken log2 fold change: -0.471

RRIRRRPPRLPRPRPRPYILPRP
shrunken log2 fold change: 0.366

RRIRRRPPRLPRPRPRPYLGPRP
shrunken log2 fold change: -0.276

RRIRRRPPRLPRPRPRPYLLPRP
shrunken log2 fold change: -0.263

RRIRRRPPRLPRPRPRPYLMPRP
shrunken log2 fold change: -0.146

RRIRRRPPRLPRPRPRPYLTPRP
shrunken log2 fold change: 0.0355

RRIRRRPPRLPRPRPRPYMKPRP
shrunken log2 fold change: -0.0984

RRIRRRPPRLPRPRPRPYMTPRP
shrunken log2 fold change: -0.0329

RRIRRRPPRLPRPRPRPYNAPRP
shrunken log2 fold change: -0.964

RRIRRRPPRLPRPRPRPYNDPRP
shrunken log2 fold change: -0.176

RRIRRRPPRLPRPRPRPYNFPRP
shrunken log2 fold change: -0.642

RRIRRRPPRLPRPRPRPYNLPRP
shrunken log2 fold change: -0.233

RRIRRRPPRLPRPRPRPYNSPRP
shrunken log2 fold change: -0.573

RRIRRRPPRLPRPRPRPYPRPRP
shrunken log2 fold change: 0.207

RRIRRRPPRLPRPRPRPYPSPRP
shrunken log2 fold change: -0.305

RRIRRRPPRLPRPRPRPYQAPRP
shrunken log2 fold change: -0.303

RRIRRRPPRLPRPRPRPYQFPRP
shrunken log2 fold change: 0.0273

RRIRRRPPRLPRPRPRPYSFPRP
shrunken log2 fold change: -0.529

RRIRRRPPRLPRPRPRPYSLPRP
shrunken log2 fold change: -0.0861

RRIRRRPPRLPRPRPRPYTCPRP
shrunken log2 fold change: 0.0906

RRIRRRPPRLPRPRPRPYTTPRP
shrunken log2 fold change: -0.354

RRIRRRPPRLPRPRPRPYVFPRP
shrunken log2 fold change: -0.623

RRIRRRPPRLPRPRPRPYVKPRP
shrunken log2 fold change: -0.166

RRIRRRPPRLPRPRPRPYYTPRP
shrunken log2 fold change: 1.46

RRIRSRPPRLPRPRPRPAACPRP
shrunken log2 fold change: 0.222

RRIRSRPPRLPRPRPRPAAGPRP
shrunken log2 fold change: 0.585

RRIRSRPPRLPRPRPRPAAQPRP
shrunken log2 fold change: 0.833

RRIRSRPPRLPRPRPRPAAVPRP
shrunken log2 fold change: 0.418

RRIRSRPPRLPRPRPRPACAPRP
shrunken log2 fold change: 0.482

RRIRSRPPRLPRPRPRPACHPRP
shrunken log2 fold change: -0.0735

RRIRSRPPRLPRPRPRPADHPRP
shrunken log2 fold change: -0.166

RRIRSRPPRLPRPRPRPADRPRP
shrunken log2 fold change: 0.308

RRIRSRPPRLPRPRPRPAECPRP
shrunken log2 fold change: 0.0306

RRIRSRPPRLPRPRPRPAEWPRP
shrunken log2 fold change: 1.02

RRIRSRPPRLPRPRPRPAFEPRP
shrunken log2 fold change: 0.0595

RRIRSRPPRLPRPRPRPAFGPRP
shrunken log2 fold change: 0.291

RRIRSRPPRLPRPRPRPAFIPRP
shrunken log2 fold change: -0.0885

RRIRSRPPRLPRPRPRPAGQPRP
shrunken log2 fold change: -0.0166

RRIRSRPPRLPRPRPRPAGSPRP
shrunken log2 fold change: -0.209

RRIRSRPPRLPRPRPRPAHFPRP
shrunken log2 fold change: -0.418

RRIRSRPPRLPRPRPRPAHKPRP
shrunken log2 fold change: -0.152

RRIRSRPPRLPRPRPRPAHNPRP
shrunken log2 fold change: 0.133

RRIRSRPPRLPRPRPRPAISPRP
shrunken log2 fold change: 0.153

RRIRSRPPRLPRPRPRPAKKPRP
shrunken log2 fold change: 0.0292

RRIRSRPPRLPRPRPRPAKNPRP
shrunken log2 fold change: 0.157

RRIRSRPPRLPRPRPRPAKTPRP
shrunken log2 fold change: 0.111

RRIRSRPPRLPRPRPRPALTPRP
shrunken log2 fold change: 0.369

RRIRSRPPRLPRPRPRPALWPRP
shrunken log2 fold change: 0.825

RRIRSRPPRLPRPRPRPAMKPRP
shrunken log2 fold change: 0.00274

RRIRSRPPRLPRPRPRPAQAPRP
shrunken log2 fold change: 0.15

RRIRSRPPRLPRPRPRPAQDPRP
shrunken log2 fold change: 0.235

RRIRSRPPRLPRPRPRPARCPRP
shrunken log2 fold change: 0.114

RRIRSRPPRLPRPRPRPASMPRP
shrunken log2 fold change: 0.0141

RRIRSRPPRLPRPRPRPATTPRP
shrunken log2 fold change: 0.584

RRIRSRPPRLPRPRPRPAVCPRP
shrunken log2 fold change: 0.185

RRIRSRPPRLPRPRPRPAVEPRP
shrunken log2 fold change: 0.39

RRIRSRPPRLPRPRPRPAVSPRP
shrunken log2 fold change: 0.105

RRIRSRPPRLPRPRPRPAWCPRP
shrunken log2 fold change: 0.545

RRIRSRPPRLPRPRPRPAWHPRP
shrunken log2 fold change: 0.0201

RRIRSRPPRLPRPRPRPAWNPRP
shrunken log2 fold change: 0.467

RRIRSRPPRLPRPRPRPAYKPRP
shrunken log2 fold change: -0.136

RRIRSRPPRLPRPRPRPAYWPRP
shrunken log2 fold change: 0.259

RRIRSRPPRLPRPRPRPCAAPRP
shrunken log2 fold change: 0.312

RRIRSRPPRLPRPRPRPCAEPRP
shrunken log2 fold change: 0.0817

RRIRSRPPRLPRPRPRPCCAPRP
shrunken log2 fold change: 0.115

RRIRSRPPRLPRPRPRPCCKPRP
shrunken log2 fold change: 0.0569

RRIRSRPPRLPRPRPRPCCYPRP
shrunken log2 fold change: 0.145

RRIRSRPPRLPRPRPRPCDEPRP
shrunken log2 fold change: 0.124

RRIRSRPPRLPRPRPRPCDTPRP
shrunken log2 fold change: -0.227

RRIRSRPPRLPRPRPRPCETPRP
shrunken log2 fold change: 0.18

RRIRSRPPRLPRPRPRPCFMPRP
shrunken log2 fold change: 0.914

RRIRSRPPRLPRPRPRPCGMPRP
shrunken log2 fold change: -0.0447

RRIRSRPPRLPRPRPRPCGYPRP
shrunken log2 fold change: -0.00214

RRIRSRPPRLPRPRPRPCHAPRP
shrunken log2 fold change: -0.0203

RRIRSRPPRLPRPRPRPCHKPRP
shrunken log2 fold change: -1.16

RRIRSRPPRLPRPRPRPCHQPRP
shrunken log2 fold change: -0.0637

RRIRSRPPRLPRPRPRPCIEPRP
shrunken log2 fold change: -0.21

RRIRSRPPRLPRPRPRPCINPRP
shrunken log2 fold change: -0.5

RRIRSRPPRLPRPRPRPCIYPRP
shrunken log2 fold change: -0.847

RRIRSRPPRLPRPRPRPCMFPRP
shrunken log2 fold change: -0.258

RRIRSRPPRLPRPRPRPCNNPRP
shrunken log2 fold change: -0.332

RRIRSRPPRLPRPRPRPCQRPRP
shrunken log2 fold change: -0.0305

RRIRSRPPRLPRPRPRPCQVPRP
shrunken log2 fold change: -0.0521

RRIRSRPPRLPRPRPRPCRNPRP
shrunken log2 fold change: -0.273

RRIRSRPPRLPRPRPRPCRVPRP
shrunken log2 fold change: 0.11

RRIRSRPPRLPRPRPRPCSHPRP
shrunken log2 fold change: -0.174

RRIRSRPPRLPRPRPRPCSNPRP
shrunken log2 fold change: -0.0564

RRIRSRPPRLPRPRPRPCSWPRP
shrunken log2 fold change: -0.0623

RRIRSRPPRLPRPRPRPCTCPRP
shrunken log2 fold change: -0.177

RRIRSRPPRLPRPRPRPCTFPRP
shrunken log2 fold change: -0.401

RRIRSRPPRLPRPRPRPCTRPRP
shrunken log2 fold change: -0.134

RRIRSRPPRLPRPRPRPCVSPRP
shrunken log2 fold change: -0.391

RRIRSRPPRLPRPRPRPCVTPRP
shrunken log2 fold change: 0.0116

RRIRSRPPRLPRPRPRPCYCPRP
shrunken log2 fold change: -0.215

RRIRSRPPRLPRPRPRPDACPRP
shrunken log2 fold change: 0.322
